Experimental findings from paper PMC7891125 (Cell, 2021) are described below.

The assay has as its target T1, SARS-Cov2 Spike ectodomain for structural analysis (SARS-CoV-2 Wuhan-Hu-1 (MN908947), UniProt P0DTC2, RRAR > GSAS at residues 682-685 | KV > PP at residues 986-987).
T1 construct: also called trimeric spike
Nature of the assay: cryo-EM structure; spike (S ~0.6 μm) with Fab or IgG (1:6 molar ratio), applied to the grid almost immediately. To be noted: both partners purified.

In general, stoichiometry N refers to a count of units in the complex or per binding partner.

B1: Strep-tagged Fab150 (Fab, V domains shown)
VH: QVQLVESGGGLIQPGGSLRLSCAASGVTVSSNYMSWVRQAPGKGLEWVSIIYSGGTTYYADSVKGRFTISRDSSMNTLYLQMNSLRAEDTAVYYCARDLMVYGIDVWGQGTTVTVSS
VL: EIVMTQSPSSLSASVGDRVTITCRASQGISSYLAWYQQKPGKAPKLLIYAASTLQSGVPSRFSGSGSGTDFTLTISSLQPEDFATYYCQQLDSYPPGYTFGQGTKVDIK
notes: source: HEK293T, transient transfection, purified (Strep-Tactin)
Regarding B1, the binding result was “binds”.

B2: Strep-tagged Fab88 (Fab, V domains shown)
VH: QLQLQESGPGLVKPSQTLSLTCTVSGGSISSGSYNWTWIRQPAGKGLEWIGRIYNSGSTNYNPSLKSRVTISVDTSKNQLSLKVRSVTAADTAVYYCARHCSGGTCYPKYYYGMDVWGQGTTVTVSS
VL: QSALTQPPSVSEAPRQRVTISCSGSSSNIGNNAVNWYQQFPGKAPKLLIYYDDLLPSGVSDRFSGSKSGTSASLAISGVQSEDEADYYCAAWDDSLNVVVFGGGTKLTVL
notes: as for B1
B2: the “stoichiometry N” value worked out at 3 Fabs/trimer.

B3: Fab 253H165L (Fab, V domains shown)
VH: not shown
VL: DIVMTQSPGTLSLSPGERATLSCRASQSVRSSYLAWYQQKPGQAPRLLIYGASRRGTGIPDRFSGSGSGTDFTLTISRLEPEDFAVYYCQQYGSSPWTFGQGTKVEIK
notes: also called chimera 253H165L
B3: the binding result is reported as “binds”.

B4: Strep-tagged Fab316 (Fab, V domains shown)
VH: not shown
VL: QAVLTQPPSASGSPGQSVTISCTGTSSDVGGYNYVSWYQQHPGKAPKLMIYEVSKRPSGVPDRFSGSKSGNTASLTVSGLQAEDEADYYCSSYAGSNHWVFGGGTKLTVL
Regarding B4, the “stoichiometry N” value is 3 Fabs/trimer.

B5: Strep-tagged Fab 158 (Fab, V domains shown)
VH: EVQLLESGGDLIQPGGSLRLSCAASGVTVSSNYMSWVRQAPGKGLEWVSIIYPGGSTFYADSVKGRFTISRDNSKNTLYLQMHSLRAEDTAVYYCARDLGSGDMDVWGKGTTVTVSS
VL: DIVMTQSPSFLSASVGDRVTITCRASQGISSYLAWYQQKPGKAPKLLIQAASTLQSGVPSRFSGSGSGTEFTLTISSLQPEDFATYYCQQLNSYRYTFGQGTKVEIK
notes: also called Fab58 (as printed in the crystallization paragraph); source: HEK293T, transient transfection, purified (Strep-Tactin)
As for B5, the binding result is recorded as “binds”.
